How the values were obtained:
Conditions in all cases: both partners purified
Rabex5 = biological target: T1, Rabex5 (Bos taurus, UniProt O18973 1-492); test: HDX-MS; Rabex5/Rabaptin5 premixed with Rab5:GDP, ternary complex diluted into deuterated buffer without GTPγS, 1, 5 and 15 min, 22 °C
T1 construct: Rabex5, Bos taurus, 57 kDa Vps9 domain containing GEF for Rab5; The His tag served for capture in the co-purification and was then cut with 3C protease; also called Rabex5-6xHis

Rabex5/Rabaptin5 complex = biological target: T2, Rabex5/Rabaptin5 complex (Bos taurus | human, UniProt O18973 1-492; Q15276 1-862); test: as above
T2 construct: Rabex5, Bos taurus, 57 kDa Vps9 domain containing GEF for Rab5; Rabaptin5, human, 99 kDa; also called GEF/effector complex; not shown: GST, N-terminal, cleaved; copies: 2 + 2
T2 sequence (O18973 whole entry, the tested form may be a part, one chain of several): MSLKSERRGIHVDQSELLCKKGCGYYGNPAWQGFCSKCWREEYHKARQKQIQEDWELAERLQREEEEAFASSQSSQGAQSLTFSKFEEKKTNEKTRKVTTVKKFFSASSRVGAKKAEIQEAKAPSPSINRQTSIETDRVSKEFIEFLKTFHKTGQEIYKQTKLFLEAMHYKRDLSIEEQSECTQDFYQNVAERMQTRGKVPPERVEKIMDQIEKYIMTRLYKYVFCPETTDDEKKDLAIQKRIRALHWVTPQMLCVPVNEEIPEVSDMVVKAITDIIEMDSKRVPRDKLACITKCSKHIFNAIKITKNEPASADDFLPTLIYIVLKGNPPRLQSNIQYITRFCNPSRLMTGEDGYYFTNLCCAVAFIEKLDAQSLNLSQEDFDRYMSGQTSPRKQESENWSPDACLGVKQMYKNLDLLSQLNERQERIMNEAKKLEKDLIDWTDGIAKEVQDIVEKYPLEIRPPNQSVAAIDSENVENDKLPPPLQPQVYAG

Rabaptin5 = biological target: T3, Rabaptin5 (human, UniProt Q15276 1-862); test: HDX-MS; Rabex5/Rabaptin5 premixed with Rab5:GDP, ternary complex diluted into deuterated buffer with GTPγS, 1, 5 and 15 min, 22 °C; uptake compared with the sample without GTPγS
T3 construct: Rabaptin5, human, 99 kDa; GST served for capture in the co-purification and was then cut from the resin with GST-3C protease; also called GST-Rabaptin5; not shown: GST, N-terminal, cleaved
T3 sequence (looked up): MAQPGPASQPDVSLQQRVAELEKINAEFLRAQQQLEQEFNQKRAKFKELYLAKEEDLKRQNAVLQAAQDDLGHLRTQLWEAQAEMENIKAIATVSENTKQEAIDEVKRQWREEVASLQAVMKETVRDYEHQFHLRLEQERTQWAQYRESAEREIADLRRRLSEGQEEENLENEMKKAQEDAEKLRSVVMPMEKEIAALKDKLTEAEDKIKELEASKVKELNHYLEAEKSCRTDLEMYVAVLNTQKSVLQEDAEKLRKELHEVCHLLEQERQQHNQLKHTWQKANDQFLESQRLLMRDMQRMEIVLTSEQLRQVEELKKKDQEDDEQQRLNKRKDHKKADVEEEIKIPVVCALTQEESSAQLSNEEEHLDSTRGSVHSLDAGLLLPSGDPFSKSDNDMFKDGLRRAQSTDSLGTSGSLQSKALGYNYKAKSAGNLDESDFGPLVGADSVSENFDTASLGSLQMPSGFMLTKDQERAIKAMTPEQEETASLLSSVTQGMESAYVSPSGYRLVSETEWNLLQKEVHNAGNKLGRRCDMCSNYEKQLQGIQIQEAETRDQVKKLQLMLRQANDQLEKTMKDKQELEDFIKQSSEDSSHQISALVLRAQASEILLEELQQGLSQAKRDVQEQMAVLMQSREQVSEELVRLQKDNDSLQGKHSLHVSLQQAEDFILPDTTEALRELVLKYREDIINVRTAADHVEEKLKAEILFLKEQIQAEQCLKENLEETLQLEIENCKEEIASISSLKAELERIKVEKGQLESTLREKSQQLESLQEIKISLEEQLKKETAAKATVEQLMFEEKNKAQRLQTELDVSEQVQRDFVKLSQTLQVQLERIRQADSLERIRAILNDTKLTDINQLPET

Measured: binding result

T1 sequence (O18973 whole entry, the tested form may be a part): as the sequence (O18973 whole entry, the tested form may be a part, one chain of several) above

B1: Rab5 (natural protein, human, UniProt P20339 1-215, looked up)
chain: MASRGATRPNGPNTGNKICQFKLVLLGESAVGKSSLVLRFVKGQFHEFQESTIGAAFLTQTVCLDDTTVKFEIWDTAGQERYHSLAPMYYRGAQAAIVVYDITNEESFARAKNWVKELQRQASPNIVIALSGNKADLANKRAVDFQEAQSYADDNSLLFMETSAKTSMNVNEIFMAIAKKLPKNEPQNPGANSARGRGVDLTEPTQPTRNQCCSN
notes: Rab5a, human; Rab5 as used in the HDX-MS experiment, printed there without GFP; also called Rab5a; Rab5:GDP; source: Sf9, purified (Ni-NTA, SEC)
binds: all assays above
